{"source": "patent US20130052712", "test_system": "mussel adhesive protein fp-151", "sequence (chain, as listed by the source)": "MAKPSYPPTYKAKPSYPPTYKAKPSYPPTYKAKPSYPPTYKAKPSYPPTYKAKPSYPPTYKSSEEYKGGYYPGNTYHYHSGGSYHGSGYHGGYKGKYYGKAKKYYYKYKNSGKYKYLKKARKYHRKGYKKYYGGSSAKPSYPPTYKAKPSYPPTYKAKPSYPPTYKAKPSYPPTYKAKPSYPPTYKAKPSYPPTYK", "data": [{"substance": "alkaline phosphatase", "values": [{"measurement": "activity of alkaline phosphatase remaining on the nanofiber (conversion of pNPP, absorbance at 405 nm)", "value": "alkaline phosphatase is coated only on PCL/fp-151 nanofiber to exhibit the activity"}]}]}
